Values quoted from earlier work in article PMC8689690.

Target: IL-28R1 (Homo sapiens) (UniProt Q8IU57)
Assay: ELISA

UniProt Q8IU57, sequence (Q8IU57 21-228): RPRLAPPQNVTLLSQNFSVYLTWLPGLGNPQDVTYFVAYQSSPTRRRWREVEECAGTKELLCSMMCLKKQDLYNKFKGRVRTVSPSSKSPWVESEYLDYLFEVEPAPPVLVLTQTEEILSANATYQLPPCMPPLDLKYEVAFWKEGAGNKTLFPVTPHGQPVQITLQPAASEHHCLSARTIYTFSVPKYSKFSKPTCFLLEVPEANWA

Row | Kd [nM] | Substance
1 | 15 | IFNL1 (from UniProt Q8IU54)
2 | 65 | IFNL3 (from UniProt Q8IZI9)
